# According to the nanobody polyreactivity screen of Harvey et al. (2022):
# Test: yeast display, Sf9 membrane polyspecificity reagent, FACS + sequencing; frameworks hold sequencing errors
# Procedure, shortened: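 Genes from sorted yeast were amplified by colony PCR, read by MiSeq 2 × 250 sequencing and filtered on CDR length. These cells carried a synthetic nanobody library in Saccharomyces cerevisiae BJ5465 and were sorted by FACS into low and high (top ~1%) gates on anti-HA and streptavidin fluorescence. Polyreactivity is labelled according to the gate of origin.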
row,Sequence,polyreactivity (PSR sort gate)
1,QVQLVESGGGLVQAGGSLRLSCAASGRIFYKYVMGWYRQAPGKERELVAAINRSGGTTYYADSVKGRFTISRDNAKNTVYLQMNSLKPEDTAVYYCNATLPDYWPYYYYQGGDDYWGQGTQVTVSS,low polyreactivity
2,QVQLVESGGGLVQAGGSLRLSCSASGFIFWYNAMGWYRQAPGKERELVAAISWSGGRTYYADSVKGRFTISRDNAKNTVYLQMNSLKPEDSAVYYCAAKVPRSSRSYGYWGQGTQVTVSS,high polyreactivity
3,QVQLVESGGGLVQAGGSLRLSCAASGIIFGRYTMGWYRQAPGKERELVAAITSSGITYYADSVKGRFTISRDNAKNTVYLQMHSLTPEDTAVYYCAADSPVSVTADDGYSGQGTQVTVSS,low polyreactivity
4,QVQLVESGGGLVQAGGSLRLSCAASGLTFWWYAMGWYRQAPGKERELVAAISSSGGSTYYADSVKGRFTISRDNAKNTVYLQMNSLKPEDTAVYYCAVASWDNYWDPYGYWGQGTQVTVSS,low polyreactivity
5,QVQLVESGGGLVQAGGSLRLSCAASGSILNGYAMGLYRQAPGKERELVAAISGSGGSTHYADSVKWRFTISRDNAKNTVYLQMNSLKPEDTAVYYCAAAYKWTYYWGQGTQVTVSS,high polyreactivity
6,QVQLVESGGGLDQAGGSLSLSTAASGFTFYVKAMGLYRQAPGKEREWVAAISSSGTRTYYADSVKGRFTISRDNAKNSVYFQMKCLKPEYTAVYFCAARGQAYSGDRMYYWGQGTQVTVSS,high polyreactivity
7,QVQLVESGGGLVQAGGSLRLSCAASGRIFGDNAMGWYRQAPGKERELVAAITNRGGTTYYADSVKGRFTISRDNAKNTVYLQMNSLRPEDTAVYYCNKTPDRHRRYFGYGYWGQGTQVTVSS,low polyreactivity
8,QVQHVESAGGLVQAGGILRLSCAASGRIFYPYAMGWYRQAPGKERELVAAISSSGGSTYYADSVKGRFTISRDNAKNTVSLQMNSLKPEDTAFYYCNKDFQYYPRIFGYWGQGTQVTVSS,high polyreactivity
9,QVQLVESGGGLVQAGGSLRLSCAASGYIFPYYAMGWYRQAPGKERELVAAISRSGGGTYYADSVKGRFTISRDNAKNTVYLQMNSLKPEDTAVYYCNRRSGHVHEYDYWGQGTQVTVSS,low polyreactivity
10,QVQLVESGGGLVQAGGSLRLSCAASGRISIKNAMGWYRQAPGQERELVAAIRWSADSTYYADSVKGRFTISRDNAKTTVYLQMNSLKPEDTAVYYCAATGRLRYYWGQGTQVNVSS,high polyreactivity
11,QVQLVESGGGLVQAGGSLRLSCAASGRTFYKYAMGWYRQAPGKERELVAAISSRGGRTYYADSVKGRFTISRDNATNTVYLQMNSLKPEDTAVYYCAAKGRPDGKYDYWGQGTQVTVSS,high polyreactivity
12,QVQLVESGGGLVQAGGSLRLSCAASGRIFYSYAMGWYRQAPGKERELVAGINWRGSNTYYADSVKGRFTISRDNAKNTVYLQINSLKPEDTAVYYCKAGRRQDYRYNYWGQGTQVTVSS,high polyreactivity
13,QVQLVESGGGLVQAGGSLRLSCAASGFTIPTYTMGWYRQAPGKEREFVARITKRGGSTYYADSVKGRFTISRDNAKNTVYLQMNGLKPEDTAVYYCNARRYGKVVRSRYNYWGQGTQVTVSS,high polyreactivity
14,QVQLVESGGGLVQAGGSLRLSCAASGITFQKNAMGWYSQAPGKERELVAGITWRGSTYYADSVKGRFTISRDNAKNTVYLQRNSLKPEDTAVYYCAADPFSWYRSVRGEYWGQGTQVTVSS,low polyreactivity
15,QVHLVESGGGLVQAGGSLRLSCAASGLIFYFYAKGWYRQAPGKERELVAGITNGGSTNYADSVKGRFTISRDNAKNTVYLQMNSLKPEDTAVYYCAAQYYTVRSTYDYWGQGTQVTVSS,high polyreactivity
16,QVQIVESGGGLDQAGGSLRLSCAASGRTFVSNDMGRYRQAPGKERELVATISSGASTYYADSVKGRFTISRDNAKTTVYLQMISLKPEDNAVYYCAAEDLVFGGGYDYWGQGTQVNVSS,low polyreactivity

row,Sequence,polyreactivity (PSR sort gate)
1,QVQLVESGGCLVQAGGSLRLSCAASGSIFEYYAMAWSRQAPGKERELVAAINSGDITKYADSVKGRFTISRDNAKNTVYLQMNSLKPEDTAVYYCAKRLSSREYYWGQGSQVTVSS,high polyreactivity
2,QVQLVESGGGLVQAGGSLRLSCAASGSTFNGYAMGWYRQAPGKERELVAAISKRGGSTYYADSVKGRFTISRDNEKNTVYLQMNSLKPEDTAVYYCAARNPTQYLMDYWGQGTQVTVSS,high polyreactivity
3,QVQLVESGGGLVQAGGSLRLSCAASGSISYFNDMGWYRQAPGKERELVAAIRDSGGITYADSVKGRFTISRDNAKNTVYLQMNSLKPEDTAVYYCDKDAGLQKYHHDYWGQGTQVTVSS,low polyreactivity
4,QVQLVESGGGLVQAGGSLRLSCAASGRIFNQYGMGWYRQAPGKERELVAAIRSGDSTNYADSVKGRFTISRDNAKNTVYLQMNSLKPVDTAVYYFNAYLSPKQPLSPPDPTFEGGYWGQGTQVTVSS,low polyreactivity
5,QVQLVESGGGLVQAGGRLRLSCAASGRTFDRYAMGWYRQAPGKERELVAAITWSGGRTYYADSVKGRFTISRDNAKKTVYLQMNSLKPEDTAVYYCAADNSYRGYHSPYDYWGQGTQVTVSS,low polyreactivity
6,QVQLVESGGGLVQAGGSLRLSCAASGLTIVQYAMGWYRQAPGKERELVARISRNGGSSYYADSVKGRFPISRDNAKNTVYLQMNSLKPEDTAVYYCNALRGPVKFYYWGQGTQVTVSS,low polyreactivity
7,QVQRVESGGGLVQAGGSLRISCAASGLTINNYARGWYRQAPGKERELVAAISFSGGDTYYADSVKGRFTISRDNAKNTVYLQMNSLKPEDTGVYYFAAESYSVLQMGYWGQGTQVTVSS,high polyreactivity
8,QVHLVESGGALVQAGGSLRLSCAASGSTFGGYAMGWYRPAPWKERELVAAITRSGGTTYYADSVKGRFTISRDNAKNTVYLQMNSLKPEDTAVYYCAAQGRRRPHQDAPYDYWGQGTQVTVSS,high polyreactivity
9,QVQLVESGGCLVQAGGSHRLSCASSGRTFYRKAMGWYRQAPGKERELVAAISSGTSTNYADSVKGRFTISRDYAKNTVYLQMNSLKPEDTAVYYCAKERPRGAPAYYSRFYDYWGQGTQVTVSS,high polyreactivity
10,QVQLVESGGGLVQAGGSLRLSCAASGRTSRVNAMGWYRQAPGKERELVATITKSGGSTFYADSVKGRFTISRDNAKNTVYLQMNILKPEDTAVYYCNAGGVRATKGYDYWGQGTQVTVSS,low polyreactivity
11,QVQLVESGGGLVQAGGSLRLSCAASGRTFGDYAMGWYRQAPGKERELVAAISKSGGITYYADSVKGRFTISRDNAKNTVYLQMNSLKPEDTAVYYCNADGSPFYYSGYDYWGQGTQVTVSS,high polyreactivity
12,QVQLVESGGGLVQAGGSLRLSCAASGSTFRVYDMGWYRQAPGKERELVASISYSVGSTYYADSVKGRFTISRDNAKNTVYLQMNSLKPEDTAVYYCAARPSYQPSSLARYDYWGQGTQVTVSS,low polyreactivity
13,QLQLVESGGVLVQAGASLRLSCAATVSTFIYYAMGWYRQAPGKEREVVAAISKRGGNTYYADSVKGRFTISRDNAKNTVYLQMNSLKPEDTAVYYCAARVYGTSRRYYSWGQGTQVTVSS,high polyreactivity
14,QVQLVESGGGLVQAGGSLRLSCAASGRIFRWYAMGWYRQAPGKERELVAAISYSGGSTYYADSVKGRFTISRDNAKNTVYLQMNRLKPEDTAVYYCNAVLYTPVYDGFDSWGQGTQVTVSS,high polyreactivity
15,QVQLVESGGGLVQAGGSLRLSCAASGSTFSFYAMGWYRQAPGQERELVAAIRAGTRTYYADSVKGRFTISRDNAKNTVYLQMNSLKPEDTAVYYCAATRRRYPYYYWGQGTQVTVSS,high polyreactivity
16,QVQRVESGGGLVQAGGSLRLSCAASGIIFQSYAMGWYRQAPGKERELVAAISRRGRRTYYADSVKGRFTFSRDNAKNTVDLQMTSLKPEDTAVYYCADRYRYAPYDYWGQGTQVTVSS,high polyreactivity
